Source: patent US20240132589A1 (ONCORESPONSE, published 2024)

Legend:
Assay in all cases: flow cytometry, transiently transfected HEK293-6E cells
[1] = target: T1, Human LILRB4 on transiently transfected HEK293-6E cells (human, UniProt Q8NHJ6 22-448)
T1 construct: whole, on cells; also called hLILRB4

[2] = target: T2, Human LILRA2 on transiently transfected HEK293-6E cells (human, UniProt Q8N149 24-483)
T2 construct: whole, on cells; also called hLILRA2

[3] = target: T3, Human LILRB3 on transiently transfected HEK293-6E cells (human, UniProt O75022 24-631)
T3 construct: whole, on cells; also called hLILRB3

[4] = target: T4, Human LILRA1 on transiently transfected HEK293-6E cells (human, UniProt O75019 17-489)
T4 construct: whole, on cells; also called hLILRA1

[5] = target: T5, Human LILRA6 on transiently transfected HEK293-6E cells (human, UniProt Q6PI73 24-481)
T5 construct: whole, on cells; also called hLILRA6

[6] = target: T6, Human LILRB1 on transiently transfected HEK293-6E cells (human, UniProt Q8NHL6 24-650)
T6 construct: whole, on cells; also called hLILRB1

[7] = target: T7, Human LILRA4 on transiently transfected HEK293-6E cells (human, UniProt P59901 24-499)
T7 construct: whole, on cells; also called hLILRA4

[8] = target: T8, Human LILRB5 on transiently transfected HEK293-6E cells (human, UniProt O75023 24-590)
T8 construct: whole, on cells; also called hLILRB5

[9] = target: T9, Human LILRA5 on transiently transfected HEK293-6E cells (human, UniProt A6NI73 42-299)
T9 construct: whole, on cells; also called hLILRA5

[10] = target: T1, Human LILRB4 on transiently transfected …; remark: listed apart in the source
Procedure: (§1) To determine that the anti-LILRB2 antibodies specifically bind to LILRB2 and not other LILRB and LILRA family members, a cross-reactivity assay was performed. Cross-reactivity of the LILRB2 antibodies to other LILRB proteins was assessed by antibody binding to transiently transfected HEK293-6E cells, measured by flow cytometry. Binding was evaluated to HEK293-6E cells transiently transfected with human LILRB-1, -2, -3, -4, and 5 plasmids (Origene, Nos. RC219949, RC217935, RC211228, RC220932, RC206516) or to cells transiently transfected with human LILRA-1, -2, -4, -5, and -6 plasmids (Origene, Nos. RC210808, RC205626, RC220452, RC212310 RC212965). […] Murine primary antibodies to LILRA and LILRB targets and corresponding isotype controls were used to confirm specific binding of all targets tested (R&D Systems) while an AF647 F(ab′)₂ fragment goat anti-mouse antibody (Jackson ImmunoResearch, No. 115-606-062) was used for the detection of bound positive control antibodies. No binding of B2A-IgG4 or B2A-IgG1 to LILRB-1, -3, -4, or -5 was observed, and no binding of either antibody to LILRA-1, -2, -4, -5, or -6 was observed, confirming specificity of these antibodies.
(§2) Select humanized variant antibodies were tested for their ability to bind other LILRB or LILRA family members, using the method and commercially available positive control antibodies of Example 5.

[11] = target: T2, Human LILRA2 on transiently transfected …; remark: listed apart in the source
Procedure: as §1, §2

[12] = target: T3, Human LILRB3 on transiently transfected …; remark: listed apart in the source
Procedure: as §1, §2

[13] = target: T4, Human LILRA1 on transiently transfected …; remark: listed apart in the source
Procedure: as §1, §2

[14] = target: T5, Human LILRA6 on transiently transfected …; remark: listed apart in the source
Procedure: as §1, §2

[15] = target: T6, Human LILRB1 on transiently transfected …; remark: listed apart in the source
Procedure: as §1, §2

[16] = target: T7, Human LILRA4 on transiently transfected …; remark: listed apart in the source
Procedure: as §1, §2

[17] = target: T8, Human LILRB5 on transiently transfected …; remark: listed apart in the source
Procedure: as §1, §2

[18] = target: T9, Human LILRA5 on transiently transfected …; remark: listed apart in the source
Procedure: as §1, §2

[19] = target: T10, Human LILRB2 on transiently transfected HEK293-6E cells (human, UniProt Q8N423 22-597)
T10 construct: whole, on cells; also called hLILRB2
Procedure: as §1, §2

[20] = target: T10, Human LILRB2 on transiently transfected …; remark: listed apart in the source
Procedure: as §1

T7 sequence (P59901 24-499): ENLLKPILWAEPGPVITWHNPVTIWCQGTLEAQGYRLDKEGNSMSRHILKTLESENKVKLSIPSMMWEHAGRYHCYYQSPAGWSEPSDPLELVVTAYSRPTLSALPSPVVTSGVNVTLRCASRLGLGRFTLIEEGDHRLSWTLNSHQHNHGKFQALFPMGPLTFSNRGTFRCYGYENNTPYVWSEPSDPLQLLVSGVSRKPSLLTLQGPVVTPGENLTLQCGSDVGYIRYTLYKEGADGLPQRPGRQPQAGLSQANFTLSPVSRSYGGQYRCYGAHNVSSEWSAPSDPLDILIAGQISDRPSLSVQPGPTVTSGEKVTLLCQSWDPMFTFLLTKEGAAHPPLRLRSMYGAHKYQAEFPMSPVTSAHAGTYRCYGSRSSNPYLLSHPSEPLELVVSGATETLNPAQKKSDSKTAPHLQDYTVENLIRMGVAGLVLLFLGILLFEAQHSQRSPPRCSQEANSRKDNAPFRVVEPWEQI
T2 sequence (Q8N149 24-483): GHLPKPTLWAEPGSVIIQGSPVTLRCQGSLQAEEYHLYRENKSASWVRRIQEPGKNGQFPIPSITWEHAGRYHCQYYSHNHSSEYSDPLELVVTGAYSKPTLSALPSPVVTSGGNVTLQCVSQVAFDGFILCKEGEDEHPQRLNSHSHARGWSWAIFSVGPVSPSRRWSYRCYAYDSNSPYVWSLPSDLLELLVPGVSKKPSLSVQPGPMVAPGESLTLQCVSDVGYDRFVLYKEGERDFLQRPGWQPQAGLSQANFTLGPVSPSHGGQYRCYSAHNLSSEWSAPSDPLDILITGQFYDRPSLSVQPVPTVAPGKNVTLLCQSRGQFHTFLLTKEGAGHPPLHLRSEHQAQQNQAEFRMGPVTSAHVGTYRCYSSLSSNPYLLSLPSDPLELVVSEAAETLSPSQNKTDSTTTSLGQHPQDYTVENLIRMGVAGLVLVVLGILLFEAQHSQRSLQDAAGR
T4 sequence (O75019 17-489): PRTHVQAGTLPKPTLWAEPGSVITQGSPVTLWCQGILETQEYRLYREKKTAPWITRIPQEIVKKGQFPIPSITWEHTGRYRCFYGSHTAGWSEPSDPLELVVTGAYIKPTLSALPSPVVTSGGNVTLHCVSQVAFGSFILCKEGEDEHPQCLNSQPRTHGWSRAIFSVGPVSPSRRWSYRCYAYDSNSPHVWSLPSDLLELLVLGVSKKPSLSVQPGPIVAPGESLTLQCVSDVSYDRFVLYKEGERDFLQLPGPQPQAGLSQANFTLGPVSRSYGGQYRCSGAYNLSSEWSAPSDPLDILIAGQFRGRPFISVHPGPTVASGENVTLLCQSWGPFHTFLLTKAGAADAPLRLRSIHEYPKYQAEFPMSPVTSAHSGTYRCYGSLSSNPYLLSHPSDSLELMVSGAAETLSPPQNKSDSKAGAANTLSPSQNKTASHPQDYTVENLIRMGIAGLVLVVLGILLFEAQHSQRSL
T6 sequence (Q8NHL6 24-650): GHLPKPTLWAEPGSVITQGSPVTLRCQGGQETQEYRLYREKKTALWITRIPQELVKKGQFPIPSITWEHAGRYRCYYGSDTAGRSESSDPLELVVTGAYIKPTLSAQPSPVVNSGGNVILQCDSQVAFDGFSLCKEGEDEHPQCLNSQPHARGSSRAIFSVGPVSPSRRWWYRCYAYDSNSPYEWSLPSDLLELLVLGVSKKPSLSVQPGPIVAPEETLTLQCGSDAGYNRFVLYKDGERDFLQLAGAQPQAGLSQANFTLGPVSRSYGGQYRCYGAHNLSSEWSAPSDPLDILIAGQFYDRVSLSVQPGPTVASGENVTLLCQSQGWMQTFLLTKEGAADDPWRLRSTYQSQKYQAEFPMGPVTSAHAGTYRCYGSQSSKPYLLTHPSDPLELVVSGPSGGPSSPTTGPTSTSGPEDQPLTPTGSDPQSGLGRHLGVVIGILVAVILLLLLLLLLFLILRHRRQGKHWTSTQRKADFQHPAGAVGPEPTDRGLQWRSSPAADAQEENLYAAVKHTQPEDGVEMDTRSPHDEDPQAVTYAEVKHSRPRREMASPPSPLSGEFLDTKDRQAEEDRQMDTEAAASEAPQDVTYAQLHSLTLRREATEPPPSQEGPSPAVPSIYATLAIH
T8 sequence (O75023 24-590): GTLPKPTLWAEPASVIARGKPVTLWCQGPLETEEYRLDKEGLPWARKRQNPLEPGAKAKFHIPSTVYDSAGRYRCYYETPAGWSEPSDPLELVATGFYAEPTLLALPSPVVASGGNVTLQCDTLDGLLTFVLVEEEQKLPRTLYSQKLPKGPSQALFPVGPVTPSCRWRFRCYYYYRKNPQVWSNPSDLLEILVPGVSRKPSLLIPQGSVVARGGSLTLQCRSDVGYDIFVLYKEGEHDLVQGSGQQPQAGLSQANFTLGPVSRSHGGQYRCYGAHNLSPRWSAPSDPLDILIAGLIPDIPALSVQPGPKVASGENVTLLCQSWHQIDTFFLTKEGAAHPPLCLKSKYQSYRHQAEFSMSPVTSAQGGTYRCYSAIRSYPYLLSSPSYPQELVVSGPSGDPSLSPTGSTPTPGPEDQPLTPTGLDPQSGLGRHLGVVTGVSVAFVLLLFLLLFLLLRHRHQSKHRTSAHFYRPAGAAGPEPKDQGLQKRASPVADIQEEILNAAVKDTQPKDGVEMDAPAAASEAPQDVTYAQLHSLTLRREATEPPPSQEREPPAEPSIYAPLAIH
T10 sequence (Q8N423 22-597): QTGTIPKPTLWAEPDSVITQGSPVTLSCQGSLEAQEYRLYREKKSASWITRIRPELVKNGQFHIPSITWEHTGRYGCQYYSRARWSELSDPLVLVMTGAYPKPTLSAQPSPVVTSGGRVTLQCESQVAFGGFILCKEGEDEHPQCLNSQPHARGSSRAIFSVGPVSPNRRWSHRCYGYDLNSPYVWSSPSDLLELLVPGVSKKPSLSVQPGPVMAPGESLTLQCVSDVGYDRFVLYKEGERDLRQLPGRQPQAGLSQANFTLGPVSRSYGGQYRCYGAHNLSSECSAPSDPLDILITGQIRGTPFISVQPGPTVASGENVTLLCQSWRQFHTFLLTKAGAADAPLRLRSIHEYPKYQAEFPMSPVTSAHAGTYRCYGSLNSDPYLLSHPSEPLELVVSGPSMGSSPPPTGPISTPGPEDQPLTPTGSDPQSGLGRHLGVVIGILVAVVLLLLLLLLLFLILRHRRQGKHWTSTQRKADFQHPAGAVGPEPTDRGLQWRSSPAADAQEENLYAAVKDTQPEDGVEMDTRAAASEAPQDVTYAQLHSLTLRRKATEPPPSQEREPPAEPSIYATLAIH
T9 sequence (A6NI73 42-299): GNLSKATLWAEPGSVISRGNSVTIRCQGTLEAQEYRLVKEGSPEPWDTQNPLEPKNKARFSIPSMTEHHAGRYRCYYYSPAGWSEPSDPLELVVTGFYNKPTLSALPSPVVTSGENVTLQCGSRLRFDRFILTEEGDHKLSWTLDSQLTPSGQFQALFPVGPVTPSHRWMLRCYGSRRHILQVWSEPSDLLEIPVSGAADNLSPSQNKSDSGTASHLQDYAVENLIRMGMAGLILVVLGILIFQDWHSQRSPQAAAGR
T5 sequence (Q6PI73 24-481): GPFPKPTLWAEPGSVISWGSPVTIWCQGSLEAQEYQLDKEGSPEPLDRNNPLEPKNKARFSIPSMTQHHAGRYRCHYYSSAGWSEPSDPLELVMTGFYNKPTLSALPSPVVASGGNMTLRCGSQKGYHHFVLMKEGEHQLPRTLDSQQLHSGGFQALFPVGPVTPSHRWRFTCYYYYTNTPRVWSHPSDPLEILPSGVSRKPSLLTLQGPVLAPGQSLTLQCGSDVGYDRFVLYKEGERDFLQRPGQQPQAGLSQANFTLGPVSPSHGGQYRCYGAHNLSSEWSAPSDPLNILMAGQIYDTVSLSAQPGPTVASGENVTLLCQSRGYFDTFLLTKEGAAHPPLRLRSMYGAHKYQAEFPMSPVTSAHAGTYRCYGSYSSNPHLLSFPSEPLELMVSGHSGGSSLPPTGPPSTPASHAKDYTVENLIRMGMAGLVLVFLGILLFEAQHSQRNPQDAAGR

Binder	binding result [1]	binding result [2]	binding result [3]	binding result [4]	binding result [5]	binding result [6]	binding result [7]	binding result [8]	binding result [9]	Bmax (MFI) [10]	Bmax (MFI) [11]	Bmax (MFI) [12]	Bmax (MFI) [13]	Bmax (MFI) [14]	Bmax (MFI) [15]	BMAX [gMFI] [16]	Bmax (MFI) [17]	Bmax (MFI) [18]	Bmax (MFI) [19]	MFI [20]
B2H1-52 (antibody, V domains shown, Humanized variant, human IgG1 / kappa) VH: EVQLLESGGGLVQPGTSLTLSCAASGFSLSTYAMSWVRQAPGKGLEWIGWIYNDGSTYYAAWAKGRFTISKDTSKTTLYLQITSLRAEDTATYFCAREGDYIGYFNIWGQGTLVTVSS VL: DVVMTQSPSSVSASLGDRVTITCQASQSIGSNLAWYQQKPGQAPKLLIYAAATLASGVPSRFKGSGSGTDFTLTITSLQPADFATYYCQSYVSGSSDVAFGGGTKVEIK	no binding	no binding	no binding	no binding	no binding	no binding	no binding	no binding	no binding	40.5 MFI	36.1 MFI	159 MFI	855 MFI	219 MFI	42.3 MFI	106 gMFI	153 MFI	123 MFI	10300 MFI	–
B2H1-35 (antibody, V domains shown, Humanized variant, human IgG1 / kappa) VH: QVQLVESGGRVVQPGTPLRLSCAASGFSLSTYAMSWVRQAPGKGLEWVAWIYNDGSTYYAAWAKGRFTISRDTSKNTLYLQTNSLKPDDTAVYYCAREGDYIGYFNIWGQGTLVTVSS VL: DVVMTQTPSSVSAALGGTVTIKCQASQSIGSNLAWYQLKPGQRPKLLIYAAATLASGGSSRFKGSGSGTDFTLTISSLEPADAATYYCQSYVSGSSDVAFGGGTEVVVK	no binding	no binding	no binding	no binding	no binding	no binding	no binding	no binding	no binding	38.5 MFI	33.6 MFI	146 MFI	766 MFI	202 MFI	41.3 MFI	103 gMFI	145 MFI	122 MFI	10300 MFI	–
B2Comp1 (antibody, human IgG4 S228P, lambda, V domains shown, Benchmark antibody, IgG4 heavy chain and lambda light chain; biotin-conjugated when used as the labelled antibody in binning; also called MK-4830 (as designated in WO 2021/138079 A1); αLILRB2B2Comp1) VH: EVQLQQWGAGLLKPSETLSLTCAVYGGSFSGYYWSWIRQPPGKGLEWIGEINHAGSTNYNPSLKSRVTISVDTSKNQFSLKLSSVTAADTAVYYCARLPTRWVTTRYFDLWGRGTLVTVSS VL: ESVLTQPPSVSGAPGQRVTISCTGSSSNIGAGYDVHWYQQLPGTAPKLLIYGDSNRPSGVPDRFSVSKSGASASLAITGLQAEDEADYYCQSFDNSLSAYVFGGGTQLTVLG	–	–	–	–	–	–	–	–	–	–	–	–	–	–	–	–	–	–	–	9630 MFI
